{"source": "patent US20240352140A1", "about": "(Janssen / Centocor, published 2024)", "binders": {"B1": {"name": "teclistamab (bispecific antibody, human IgG4 S228P, lambda, F234A L235A)", "heavy 1": "not shown", "light 1": "SYVLTQPPSVSVAPGQTARITCGGNNIGSKSVHWYQQPPGQAPVVVVYDDSDRPSGIPERFSGSNSGNTATLTISRVEAGDEAVYYCQVWDSSSDHVVFGGGTKLTVLGQPKAAPSVTLFPPSSEELQANKATLVCLISDFYPGAVTVAWKGDSSPVKAGVETTTPSKQSNNKYAASSYLSLTPEQWKSHRSYSCQVTHEGSTVEKTVAPTECS", "heavy 2": "EVQLVESGGGLVQPGGSLRLSCAASGFTFNTYAMNWVRQAPGKGLEWVARIRSKYNNYATYYAASVKGRFTISRDDSKNSLYLQMNSLKTEDTAVYYCARHGNFGNSYVSWFAYWGQGTLVTVSSASTKGPSVFPLAPCSRSTSESTAALGCLVKDYFPEPVTVSWNSGALTSGVHTFPAVLQSSGLYSLSSVVTVPSSSLGTKTYTCNVDHKPSNTKVDKRVESKYGPPCPPCPAPEAAGGPSVFLFPPKPKDTLMISRTPEVTCVVVDVSQEDPEVQFNWYVDGVEVHNAKTKPREEQFNSTYRVVSVLTVLHQDWLNGKEYKCKVSNKGLPSSIEKTISKAKGQPREPQVYTLPPSQEEMTKNQVSLTCLVKGFYPSDIAVEWESNGQPENNYKTTPPVLDSDGSFLLYSKLTVDKSRWQEGNVFSCSVMHEALHNHYTQKSLSLSLGK", "light 2": "QTVVTQEPSLTVSPGGTVTLTCRSSTGAVTTSNYANWVQQKPGQAPRGLIGGTNKRAPGTPARFSGSLLGGKAALTLSGVQPEDEAEYYCALWYSNLWVFGGGTKLTVLGQPKAAPSVTLFPPSSEELQANKATLVCLISDFYPGAVTVAWKADSSPVKAGVETTTPSKQSNNKYAASSYLSLTPEQWKSHRSYSCQVTHEGSTVEKTVAPTECS", "notes": "Humanized IgG4 proline, alanine, alanine (PAA)-based bispecific antibody with one BCMA arm (BCMB69) and one CD3 arm (CD3B219); also called JNJ-64007957; JNJ-957"}}, "key": {"[1]": {"target": "T1, cynomolgus monkey BCMA (as used in SPR) (cynomolgus monkey)", "T1 construct": "also called cyno BCMA", "experiment": "SPR; column printed 'Binding Affinity to BCMA (nM)', Cyno"}, "recombinant soluble BCMA": {"target": "T2, recombinant soluble BCMA (Homo sapiens (Human), UniProt Q02223 1-54)", "T2 sequence": "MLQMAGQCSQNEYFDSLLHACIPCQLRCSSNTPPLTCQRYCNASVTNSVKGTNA", "experiment": "cell-based or functional assay"}}}
{"binder": "B1", "values": [{"measurement": "Kd", "setting": "[1]", "result": "5.36 to 7.27", "unit": "nM"}, {"measurement": "cytotoxicity assay with spiked recombinant sBCMA (167 nM), reduction in potency", "setting": "recombinant soluble BCMA", "result": 2, "unit": "fold"}]}
